This data set can be described thus: label from the status in PepcDB records.

Turning to “MESQLTLITLTLVIATIFGVALSRFRISPIPAYLIAGLLGKSFGLDYSSDLFNFLSTLAINLVSFNVGISLDIRELKNILSKATIIAITEYIVGFTIISIISLIIGLPFYDTFILTIISVTTSTTITYKLIQNKIDDKQSGLILAVLSLEDVITFIALGVILSSNSNIVEIIPTSLASLGLGYLVSRTIINRSINTSEESVIISSIASVLSFSLLGQIFDIPSTLANFLLGLGASYALKDTKKVSRILSPLIDFSLIFFFFSAGSYLNLSLSSLYVLVPISLIMTLVKYLSFSTSYWLTGSNFLVAFRSGIYMTSLSELGIIVALNAFQQGIITSLVYNLSAFLVMMSSTITSITVPRERRIIGLISKTYEKLRIDRIDGALQRITRVVKLNRNTTSNFILRFILIGLITIFSASYLLIFLVSFARFFIYIAPLISVLVPFLLALLVIEETRRLSNLGQKRINEIILWIIYVFITINFEIFIVRIISELNYYVIYLGILVSIIVIVIMYQRLNTFIKELDKSL”, the protein production result is listed as “failed”.

“MESSKKMDSPGALQTNPPLKLHTDRSAGTPVFVPEQGGYKEKFVKTVEDKYKCEKCHLVLCSPKQTECGHRFCESCMAALLSSSSPKCTACQESIVKDKVFKDNCCKREILALQIYCRNESRGCAEQLTLGHLLVHLKNDCHFEELPCVRPDCKEKVLRKDLRDHVEKACKYREATCSHCKSQVPMIALQVSLLQNESVEKNKSIQSLHNQICSFEIEIERQKEMLRNNESKILHLQRVIDSQAEKLKELDKEIRPFRQNWEEADSMKSSVESLQNRVTELESVDKSAGQVARNTGLLESQLSRHDQMLSVHDIRLADMDLRFQVLETASYNGVLIWKIRDYNRRKQEAVMGKTLSLYSQPFYTGYFGYKMCARVYLNGDGMGKGTHLSLFFVIMRGEYDALLPWPFKQKVTLMLMDQGSSRRHLGDAFKPDPNSSSFKKPTGEMNIASGCPVFVAQTVLENGTYIKDDTIFIKVIVDTSDLPDP”: the protein production entry is listed as “not failed”.

Take “MESTKSNDIPILRNVSDSFSDHYGKYLQRCGIFVPKDGDSSGPDAYVVFHNGQTRYVVAFSFTFYHKTEFSKRDIEKEAEQFFQEVISVLNDGSPSSVQLCFQFVVVCTRYDRSVVFSSEEQNIVEDASYLVTEHSAGSTLNESRRSCLQLVVVSQRNLERFLGRENFDILRKIGKASREEFRKDFSVWCKTVFESMSDEYVSPLEAKPFNVTLRVARNIRPRTNEENRMQMEGFQTAMQVEEGNTRGEQRVAASSSLSSSFDWNTFLREYCGLSEEDVAYCLPKVEDIDMDELPAVTKEILRDLGIDKPALRLKIRSSIRSYLANER”: the protein production result is listed as “failed”.

With “MESVKTGKTNKVGKNTEMANTKANKETHFKQVSAITNIIRSVGGFFTKIAKRVRGLVKKHPKKSSAALVVLTHIACKKAKELDDKVQDKSKQAEKENQINWWKYSGLTIAASLLLAACSAGDTDKQIELEQEKKEAENARDRANKSGIELEQERQKTNKSGIELANSQIKAEQERQKTEQEKQKANKSAIELEQQKQKTINTQRDLIKEQKDFIKETEQNCQENHNQFFIKKLGIKGGIAIEVEAECKTPKPAKTNQTPIQPKHLPNSKQPHSQRGSKAQEFIAYLQKELEFLPYSQKAIAKQVNFYKPSSIAYLELDPRDFKVTEEWQKENLKIRSKAQAKMLEMRDLKPDPQAHLPTSQSLLFVQKIFADVNKEIEAVANTEKKAEKAGYGYSKRM”, the protein production entry is “failed”.

Regarding “MESVYLFSSGTLKRKANTICLETESGRKYIPVENVMDIKVFGEVDLNKRFLEFLSQKRIPIHFFNREGYYVGTFYPREYLNSGFLILKQAEHYINQEKRMLIAREIVSRSFQNMVDFLKKRKVRADSLTRYKKKAEEASNVSELMGIEGNAREEYYSMIDSLVSDERFRIEKRTRRPPKNFANTLISFGNSLLYTTVLSLIYQTHLDPRIGYLHETNFRRFSLNLDIAELFKPAVVDRLFLNLVNTRQINEKHFDEISEGLMLNDEGKSLFVKNYEQALRETVFHKKLNRYVSMRSLIKMELHKLEKHLIGEQVFGSEE”, the protein production result is given as “not failed”.

Consider “METAICGRLALAPSSLFNSKSGDKHLVSKGPCVNRSILMTLSTSAALGKGGGVLDKPIIEKTTPGRESEFDLRKSKKIAPPYRVILHNDNFNKREYVVQVLMKVIPGMTVDNAVNIMQEAHINGLAVVIVCAQADAEQHCMQLRGNGLLSSVEPDGGGC”, for which the protein production result is “failed”.

For “METLLIQQTEKSNKFWKIVVKEKDYVVFYGKIGTAGSVKAKEFETEEECMNEANKLVASKRKKGYIDPLPGEDYIKEKTITEEEFWELLHRAKTKGEDQEEQIEWLTSHLAKRTVHEIVAFDTHMHSLLKDSYTSRLWAAAYIIMGGCSDDTFDYFRGWLLYQGKETYEACIEDPERLIPVLENLSEYDVPEIEELSLYFGFTVYAEKTGDEDDTYFTLYHVLSNEEFDDVDFEFDWNEDDEEGLKKVFPRLWEMYGEEPIEWLEHHHHHH”, the protein production entry is “not failed”.

As for “METNFSIPLNETEEVLPEPAGHTVLWIFSLLVHGVTFVFGVLGNGLVIWVAGFRMTRTVNTICYLNLALADFSFSAILPFRMVSVAMREKWPFGSFLCKLVHVMIDINLFVSVYLITIIALDRCICVLHPAWAQNHRTMSLAKRVMTGLWIFTIVLTLPNFIFWTTISTTNGDTYCIFNFAFWGDTAVERLNVFITMAKVFLILHFIIGFSVPMSIITVCYGIIAAKIHRNHMIKSSRPLRVFAAVVASFFICWFPYELIGILMAVWLKEMLLNGKYKIILVLINPTSSLAFFNSCLNPILYVFMGRNFQERLIRSLPTSLERALTEVPDSAQTSNTDTTSASPPEETELQAM”, the protein production entry is reported as “failed”.

In the case of “METNKYLELIKQELANMPDFVKEYNLGTSHSLTTTYQYLTEIRRFFDWLRQNNIASVSSNKEIEVTTLENLQRNDVMLYIHHLKHTKNQQGRLNSPTTINRSINALRSLYKFLTITSDNNHGEPYFDRNVMLKINSLNDTKTLNYRAHVLESHMYMGDLKYQFLDFIENEYIHKCNKQSLPAFKKNHERDMAIIALILGTGIRVSECVGVNMRNINLKDAMLDVTRKGGQKDSVPIAEWTIPYLKKYREIRADHYHAEKEDIAFFLTRWHGKTKRITTNAVEKMVNKYSAAFGKPLTPHKLRHTLASELYEVTKDQVLVAQQLGQKGTTATDLYTHVDQKKQKAALNKINRYKSSD”, the protein production result is reported as “failed”.

As for “METPAVSLLVAVYNTETYIRTCLESLRNQTMDNIEIIIVNDGSADASPDIAEEYAKMDNRFKVIHQENQGLGAVRNKGIEAARGEFIAFIDSDDWIEPDYCEQMLRTAGDETDLVICNYAAEFEDTGKTMDSDIAQTYQDQPKEHYIKALFEGKVRGFSWNKLYRRSMIEAHRLSFPLRGELEHVEDQFFSFRAHFFARSVSYVKTPLYHYRIHLSSIVQRYQKKLFESGLALYETNAAFLQENNKLEEYRKELDTFIVLHSSICMLNEWKTSGSRRLFEKLRNVGVICADPVFQESLSKTGTAPFDAKRSCLLLMAKYRMIPFVAMASAVYQRVIEYKMRNRG”, the protein production entry is on record as “failed”.

As for “METPNPLTLSELPHDLLRNIFNRLSFADFHRATWNSISKQTAPPKTKSPWLILFPDEGVHGCVLYNPDEDRIYKSVRDFSGTIFLANSGNWFLVMDSKSNLYIIDVFSENRIDLPPLESLLSDNFTFEQKGDKELKWQASNDQILVFRLPRAEELRGILWVDEKMKEFVAVWFLEDSCNFLAFYKKADDHYSHIQLEYVITDVFQSVSDIVLHGCFLYIGVGDYIQIIDLSKDQGFKDVTRNYLFNVHNGPWGFRSIFNLVVTTSGEVLMVLNNLYEKNIESEKSFRIFKKDPNPDPNKHDNLLVEVDSLGNEEVMLLDLGITMHGIEPNSIYFTRHDRVVHRLYIS”, the protein production entry is given as “not failed”.

As for “METPYTDHLSPEDFEHVYEPAEDSFLLLDALEKDLEYLDRLQPSLCVELGSGSGVIITALAKKLAGFSLCLATDINPKACNATRRTATRNGARLDSIRCSLADALRPRSVDVLLFNPPYVVTSDEELQTQQFDSHSESSTDRNLVFSWAGGQDGRRVTDILLKQLDDILSPRGVLYLLLLRENKPEEIIKYLEGLQFRAVKFMERRIPGEHLCILKVTRYLASS”, the protein production entry is given as “failed”.

For the sequence “METRFVTPFHHLLVNNLVANITNFTIWFALTFYVYLETKSVFATGMIAGVYLVLTAACGIWFGSLVDHHRKKLAMAGSSLASLLLYALALAVLLLAPKGAIADVGRPWLWALIGLSMLGVIAGNIRTIALPTLVTLLIPEDRRDKANGLVGMVSGVGFLTTSVISGFLVAWGGMLAALTFALGFTVAALVHLLTVPVDEPRVEAEHGAPVAPRRIDLAGTIKVVAAVPGLFALILFATFNNFLGGIFMALLDAYGLSMVSVQAWGLLFGFLSVAFIISGLAISKTGLGKNPLRTLLLVNLISWAVCCVFPLKSSIVMLAMGCFVWMLLGPYAEAAEQTTLQKVVPFERQGRVFGFAQSVEQAASPLTAFLIGPLTQFIVIPFMTHGAGAAAIGDWFGRGPDRGMALVFTLAGVVGLIVTLLAFGSKAYRQLSAAYAQGEPAPAA”, the protein production result is listed as “failed”.

As for “METTDHSTPQCGSASAGGQKTVGKDDYLLIEAVNKGDADRVQQLLEQGADANVCEESGGWTPLHNAVQSGRVDIVNLLLRYGADPHRRKKNGATPFIVAGICGDVSLLQIFLSRGANINERDMYGFTAFMEAAEYGNVEALKFLFAEGADVNLRRETTEDRRRLKQGGATALMSAAENGHPEVVRILLDEMKAEADARDNMGRNALIRSLLNRDCENVEIHVEEITSVLIQYGADINVRGEGEKTPLISAVKRKHTGLVQMLLSQEGIKVNDRDSEGKTALQIAVELKLKEIVRLLLEKGADTKCGDLVWIAKRNYDHGLVKLLLSYEANHDTNPPAKDWLPHSARWGEALERLHSVSRPMTGKLKIFMNDDYKIASTSEGGIYLGIYDNREVAVKVFCENSSRGRKEVSCLRDCGDHSNLLTFYGSEEHKGSLYVCVSLCESTLEKFLNVPREEPMEKGEDKFALSVLLSIFKGVQKLHMHGYSHQNLQPPNILIDSEKAVRLADFDESIQWMRESQTVQRDLEDLGRLVLYVVNKGEIPFETLKGQNDEELLTIAPNEETKDLVHCLFSPGENVKNCLMDLLGHPFFWTWENRYRTLRDVGNESDIKVRNNKSKLLKLLQPQTHAPSRSFDRWTSKIDKRVMSDMNGFYKSRKGYRDTVGDLLKFIRNIGEHINEEKNRQMKEILGDPSRYFQETFPDLVIYIYKKLKETEFRKHFPQPPPSLSVPEAAGPGGVQS”, the protein production result is “failed”.

As for “METVFALCAIMLLAFNLLGIVLAGWRLTRRDAENDLVRQKPPVSLVVPLRGVENFTPLTLSRAFGLDWPDYELLFCVADEFDPVIAEVRKAAAAFPSVSMQLLIGDDRVSANPKLNNCVKGWRAAKYEWVILADSNVLMPKSYIATMMSAWRPDSGLVCSPPLGSRPVGFWANVECAFLNGSQGRWQYAAEAIGIGFAQGKSMLWNKPFLEDRGGIRALAAEIAEDAASTKLVRSAGRKVHLVSAPFEQPLGQRHAGEIWSRQTRWARLRRVTFPQYFAPEILTGALPPLLFALAATAMMDVNLAATASVVLALMFGPELALAALNGWPVSLYTLPAMIARDLIMPVVWARSWIGSAVAWRGNVMTIGTAESTLAGPPAE”, the protein production result is “failed”.

Take “MEVCSTVTTKKLSSLAKLILFTIQKVSDASRHKLLTTLDPHLLAKRGKILRKSLNEAVSTSHSRITCRPSDHQDVRSSFISPVPLQLEYEFSCSSTPPRRSYATTVSKGRRSNGSHNRPLINKRQRQAYIRYNTLPKVRDSIWDRHVAAAVFPDVASSTGTMESCHVDRAAEEFIQSFYRQLRLQKWMMAQEV”: the protein production result is given as “failed”.

Regarding “MEVDKKDEREAESSEQVVNPWEVSAKDGGKIDYDKLIDKFGCQRLDESLIDRVQRLTSRQPHVFLRRSVFFAHRDFNEILDAYERGDKFYLYTGRGPSSEALHLGHLIPFMFTKYLQEAFKVPLVIQLTDDEKSIWKNLSVEESQRLARENAKDIIACGFDVTKTFIFSDFDYVGGAFYKNMVKVGKCVTLNKAMGIFGFSGEDPIAKLSFPPVQAVPSFPSSFPHLFPGKDNLRCLIPCAIDQDPYFRMTRDVAPRLGYSKPALIESTFFPALQGENGKMSASDPNSAIYVTDSAKDIKNKINRYAFSGGQDSIEKHRELGANLEVDIPVKYLSFFLEDDSELEHIKKEYGEGRMLTGEVKKRLTEVLTEIVERHRRARAAVTDEMVDAFMAVRPLPSMFE”, the protein production entry is reported as “not failed”.

(Values after a protein production outcome set (Wang et al. 2014).)
